± gives the standard deviation of the averaged measurements.

Data on 79 sequences can be found in the supplement of paper PMC10126150.
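Also: ATP exposure 15 min at 22 °C before imaging.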

The subject of the data set is ATP. Put plainly: switch fluorescence ratio, 500 uM ATP over buffer (Cy3 cluster intensity, sum of 5 cycles each) (fold (ratio)); higher = stronger signal-on switching upon ATP binding; sequences stand for … in TCGTCGGCAGCGTCAGATGTGTATAAGAGACAGTTTTTTTTTTTTTTTTTTTTTTTTT…TC. To be noted: aptamer strand: ATP DNA aptamer (quencher-CACCTGGGGGAGTATTGCGGAGGAAGG + anchor), 100 nM annealed; ATP concentration: 500 uM. The gist of the method: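 Switching-strand clusters labelled with Cy3 on a modified Illumina MiSeq flow-cell were annealed to 100 nM quencher-labelled ATP aptamer, imaged in selection buffer, and re-imaged after 15 min with 500 uM ATP at 22 °C. This was done over five cycles with NaOH stripping and re-annealing in between. The fluorescence ratio is summed target-cycle over summed buffer-cycle Cy3 intensity per cluster, averaged per switch-domain sequence, excluding clusters outside 100-1000 RFU.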
Consider TTTGACTAAG, for which the switch fluorescence ratio was determined as 1.06 ± 0.099.
The same measure for ATGGGTTCGC: 0.976 ± 0.035; for TCGATTTGGC: 1 ± 0.045; for GAGACACATA: 1.09 ± 0.013.
Turning to GCGGAATGGG, the switch fluorescence ratio was determined as 1.01 ± 0.019.
In the case of AATTGGATCG, the switch fluorescence ratio is 1.016 ± 0.0018.
The value for TTGTTTATTT was 1.02 ± 0.032; that for ATACGACGTG was 1.004 ± 0.0083.
In the case of AGCGGGGTTC, the switch fluorescence ratio is 1.023 ± 0.0049.
CGAACGGATT: the switch fluorescence ratio turned out to be 1.06 ± 0.054.
For the sequence TACCTACATC, the switch fluorescence ratio was found to be 1.26 ± 0.031.
Turning to CTTAAATGTT, the switch fluorescence ratio is 1.014 ± 0.0078.
Consider ATGAAGACTA, for which the switch fluorescence ratio was determined as 0.9962 ± 0.0014.
The value for GGGCGCCTAA was 1 ± 0.046; that for AGGTTAACTA was 1.02 ± 0.024; that for CATGTCGTTT was 1 ± 0.017.
For the sequence CCCAAAATGC, the switch fluorescence ratio worked out at 2.87 ± 1.5.
Take ATAGGGGTGC: the switch fluorescence ratio is 1.02 ± 0.042.
The same measure for TAAGAAGGCG: 0.9734 ± 0.0047; for TCGGATTCGA: 1.015 ± 0.0092.
The value for CTATACGGAG was 1.09 ± 0.13; that for GGAAATGGGG was 0.987 ± 0.11.
On to ATTATATGGA, for which the switch fluorescence ratio was 0.956 ± 0.01.
The value for AATTGTATAG was 0.9913 ± 0.0062.
Regarding GGATGCTTGG, the switch fluorescence ratio is 1.05 ± 0.021.
As to CCATTAGGAG, the switch fluorescence ratio stood at 0.988 ± 0.012.
The same measure for TCCAGGTGCG: 2.96 ± 0.33; for TTGATATCGG: 0.979 ± 0.023; for CGCATTAAGG: 1.11 ± 0.03.
The value for CGGTGTCTCA was 1.0117 ± 0.00057.
The value for CATGCCGCAT was 1.133 ± 0.0092; that for GGCATTACTG was 1.06 ± 0.025; that for TTGGGCGGGG was 1.03 ± 0.043.
On to ACATTGAAAA, for which the switch fluorescence ratio came to 0.996 ± 0.036.
The value for GGGGTATGAC was 1.02 ± 0.015; that for GTGGGAAAAA was 1.01 ± 0.0085.
For TCATGTGGTA, the switch fluorescence ratio came out at 0.9915 ± 0.0093.
As for GTTGTTTGTT, the switch fluorescence ratio came to 0.978 ± 0.015.
Consider AATTGATGTT, for which the switch fluorescence ratio is 0.972 ± 0.025.
The same measure for TTTTTCCGGC: 1.063 ± 0.0063; for ATGCCGGGGG: 1 ± 0.021; for TTTTATAAGA: 1.05 ± 0.075.
Regarding AGCAGAAATC, the switch fluorescence ratio amounted to 1.07 ± 0.039.
Regarding GTTAGCTAAT, the switch fluorescence ratio was 0.987 ± 0.034.
Consider AGCGTTTCCG, for which the switch fluorescence ratio was 0.99 ± 0.028.
The value for GTGTACAAAT was 0.9896 ± 0.0041; that for TGCCTGTCTA was 1.02 ± 0.018.
Consider TCATGTGTTG, for which the switch fluorescence ratio is 0.992 ± 0.045.
The value for CGGCCTGATA was 1.01 ± 0.028; that for AGATGTGGGA was 1 ± 0.013.
The value for GGATTATACA was 1.02 ± 0.002.
GACTGGCTT: the switch fluorescence ratio came out at 0.9868 ± 0.0073.
The value for CAGTCTGGTG was 1.01 ± 0.025; that for CGGAGTTGGA was 1.04 ± 0.041; that for TGGGTTGGCC was 0.99 ± 0.043.
GGTATTTGTT: the switch fluorescence ratio came to 1.01 ± 0.032.
The same measure for TGGGGCGCAT: 1.09 ± 0.064.
The same measure for CTAGCTATGT: 1 ± 0.067.
AACTCATATT: the switch fluorescence ratio came out at 0.959 ± 0.013.
ACGAGGGCCA: the switch fluorescence ratio was found to be 1.004 ± 0.0086.
The same measure for GCGGGCAGGA: 1.02 ± 0.021; for TATTTATAGT: 1.02 ± 0.013; for GGGTACCGAA: 0.981 ± 0.027.
In the case of ACCATTAAAA, the switch fluorescence ratio came out at 1.004 ± 0.0029.
TCAGGGTGCC: the switch fluorescence ratio was found to be 1.017 ± 0.0094.
Take TGATTACTGG: the switch fluorescence ratio is 1.027 ± 0.01.
As for GGGCTGTCTG, the switch fluorescence ratio is 0.9631 ± 0.0076.
Turning to GTTTCCAGGT, the switch fluorescence ratio turned out to be 1.16 ± 0.017.
Regarding TCGAATAACT, the switch fluorescence ratio turned out to be 2.2 ± 1.7.
The value for GAGGGATCAG was 0.994 ± 0.011; that for TATGATTGGG was 1.008 ± 0.0013.
CGGTTGTAAT: the switch fluorescence ratio was 1.03 ± 0.041.
As to GCTAGAGAGG, the switch fluorescence ratio is 1.04 ± 0.063.
In the case of TAGGTGTGTT, the switch fluorescence ratio amounted to 0.981 ± 0.019.
As for TTAAAGGGTA, the switch fluorescence ratio was found to be 0.992 ± 0.054.
Turning to CAACCTGAAC, the switch fluorescence ratio came out at 2.39 ± 0.2.
In the case of TTCGGTTTGC, the switch fluorescence ratio is 1.02 ± 0.066.
Regarding TCGATAATTT, the switch fluorescence ratio was 0.986 ± 0.022.
The value for AGATGCAGTA was 1.01 ± 0.028.
